# T1: Yfr024 SH3 (LSB3_YEAST), P43603
# T1 chain: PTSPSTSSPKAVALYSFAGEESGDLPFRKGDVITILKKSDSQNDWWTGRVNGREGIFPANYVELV
# T2: Boi1 SH3 (BOI1_YEAST), P38041
# T2 chain: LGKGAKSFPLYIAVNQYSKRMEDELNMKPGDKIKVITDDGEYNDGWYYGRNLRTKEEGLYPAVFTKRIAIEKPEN
# T3: Boi2 SH3 (BOI2_YEAST), P39969
# T3 chain: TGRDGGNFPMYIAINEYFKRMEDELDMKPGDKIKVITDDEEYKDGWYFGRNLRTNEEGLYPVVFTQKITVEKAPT
# T4: Yhr016c SH3 (YSC84_YEAST), P32793
# T4 chain: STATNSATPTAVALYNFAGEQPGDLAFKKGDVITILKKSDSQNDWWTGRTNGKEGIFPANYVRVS
# T5: Myo5 SH3 (MYO5_YEAST), Q04439
# T5 chain: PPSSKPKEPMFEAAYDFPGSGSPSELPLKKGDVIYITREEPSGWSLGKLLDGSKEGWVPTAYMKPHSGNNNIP
# T6: Rvs167 SH3 (RV167_YEAST), P39743
# T6 chain: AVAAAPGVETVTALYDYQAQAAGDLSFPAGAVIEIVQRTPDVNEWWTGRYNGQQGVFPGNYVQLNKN
# B1: YMR124W 350-363 (peptide)
# chain: TNGPRYSPQNPRPF
# B2: YAL026C 387-400 (peptide)
# chain: TLNDRQIPLSPDQM
# B3: YDR103W 267-280 (peptide)
# chain: TPQSRFPPYSPLLP
# B4: YEL050C 91-104 (peptide)
# chain: TQMKRLKPVSPGLR
# B5: YLR337C 365-378 (peptide)
# chain: TNSVKATPVPPTLA
# B6: YOR042W 151-164 (peptide)
# chain: TQPVRKNPEAPARR
# B7: YPR171W 298-311 (peptide)
# chain: TMKNKPKPTPPSPP
# Molecular target: T1, Yfr024 SH3 (LSB3_YEAST), P43603
# Assay: SPOT array
row,Binder,"normalised SPOT signal, Boehringer light units (BLU); mean over the file's lines of this peptide"
1,B1,470
2,B2,60.2
3,B3,33.7
4,B4,4080
5,B5,7.5
6,B6,3700
7,B7,588

# Molecular target: T2, Boi1 SH3 (BOI1_YEAST), P38041
# Assay: SPOT array
row,Binder,"normalised SPOT signal, Boehringer light units (BLU); mean over the file's lines of this peptide"
1,B1,30.1
2,B2,60.6
3,B3,57.1
4,B4,2890
5,B5,53.6
6,B6,17200
7,B7,292

# Molecular target: T3, Boi2 SH3 (BOI2_YEAST), P39969
# Assay: SPOT array
row,Binder,"normalised SPOT signal, Boehringer light units (BLU); mean over the file's lines of this peptide"
1,B1,15.5
2,B2,27.5
3,B3,7.5
4,B4,1140
5,B5,2.7
6,B6,32.4
7,B7,52.3

# Molecular target: T4, Yhr016c SH3 (YSC84_YEAST), P32793
# Assay: SPOT array
row,Binder,"normalised SPOT signal, Boehringer light units (BLU); mean over the file's lines of this peptide"
1,B1,43.5
2,B2,42.6
3,B3,34.2
4,B4,634
5,B5,23.7
6,B6,159
7,B7,217

# Molecular target: T5, Myo5 SH3 (MYO5_YEAST), Q04439
# Assay: SPOT array
row,Binder,"normalised SPOT signal, Boehringer light units (BLU); mean over the file's lines of this peptide"
1,B1,158
2,B2,73.6
3,B3,443
4,B4,1450
5,B5,168
6,B6,232
7,B7,910

# Molecular target: Sho1 SH3 (SHO1_YEAST), P40073
# Sequence (P40073 295-366): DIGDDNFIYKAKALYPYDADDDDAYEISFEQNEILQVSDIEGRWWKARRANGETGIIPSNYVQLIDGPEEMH
# Assay: SPOT array
row,Binder,"normalised SPOT signal, Boehringer light units (BLU); mean over the file's lines of this peptide"
1,B1,7.4
2,B2,30.3
3,B3,34.7
4,B4,417
5,B5,50.1
6,B6,60.1
7,B7,47.8

# Molecular target: T6, Rvs167 SH3 (RV167_YEAST), P39743
# Assay: SPOT array
row,Binder,"normalised SPOT signal, Boehringer light units (BLU); mean over the file's lines of this peptide"
1,B1,85.3
2,B2,120
3,B3,28
4,B4,1960
5,B5,34.8
6,B6,410
7,B7,48

# — PMC314469, “Protein Interaction Networks by Proteome Peptide Scanning” (PLoS Biology, 2004)
